{"source": "paper PMC4219626", "about": "(Nature structural & molecular biology, 2014)", "binders": {"B1": {"name": "Rrn7 (recombinant, His6-tagged) (natural protein, S. cerevisiae, UniProt P40992 1-514, looked up)", "chain": "MSTFIRGPICGTDNCPSRLWRIIDGRRTCQYGHVMEGDVEFNDDEDDLNGLGAGVITRRLNLTTNATGSFQSSQLTNSQLLQQQQRQSHKKFKKLIGHEAKLLFLKSFQFILKRQIRWLITEMRFPKEFEHVAKIIWLKILKTINDQPQEELKLQLHMTSTISILYLASTHLSLPVYTCDYIKWICTAKMPYFQASEILPKSWRIQLPNYYVSILEGSISPFNGQLYNKIALTCGMIHFKEFFNSEISCQGLLLKLVMQCALPPEFYFYTKQVIEFEETDIRNLTLWERTDERHTGRVSNHAELRVLSYFMLTINWMLSFDRDRQYPLKWILSLTESLTQRTTTSESIGRNIVKVVYPDKPTSSDYFQWSEEETLEFLKWMEKQFLPTQTKSLHNENGSMEMTIDQKIARRKLYKIFPLDREANHDGEFNDSTHQLTFIEDLQERYAKQTPFFESNKIRDSLNYQEANPPARKEAIGRLLTHIASQLLVDFAISKEQLKDCISRIKNACLHRMN"}, "B2": {"name": "Rrn6 (recombinant, His6-tagged) (natural protein, S. cerevisiae, UniProt P32786 1-894, looked up)", "chain": "MSEGQIPSSDVLGSQLGVGVQGASLYCPQENYTTKKQEKPQWLRPVDDTLAEDALDLHIVVKSLLCDTAIRYISDDKVLQESDADDDLITSDIDEDTDNQGDTSIVVNPVIPVVPKDVHFFKKVDVGNDSMFGVNCDTPVSFQDYIPSDLLRNLDDTLQESTNSSRPMQDAFFWDPTVANRLDSQYIQTASDLRNYRDGTEIIAYASGKTGSVLNIAVLTRQNTLHLNRHNNVTSIELHSPIKSIKIPGASESIGRRSNLVGIITENSFQIFRIESVHSRSCDVMVSSSEPLYFVEIDDLQVVDFAFNPWDLQQFAIIDIKGNWSIGRIPKNFNNNNKRKLQLIDNLHGTIFDPEELSSWKRIEWFSHFQKILVFDRSKMIEIDFMNNWQTEVVQAKAWSNIRDYKRIDDKNGILLTSREIIIVGASESNDPVRRISWKHDLDPDDTTLRITVQKVKKPDHILLVAFVYSMRHKRIYMHVFSHRKANLFQSLGCSTVLEIPGGTPTGIETILTLDHIDDESRREEDADENFELVVDFLVKLRNSSEVYYYALSNTQNSEPNKQETPIIVDHPEWASLFNNADEREKESIGALVSQIKLKERERISRVQNLIEHENSHDEDKYLQDLGYRLSIATNELLESWQKTKDESILSGSLSHSKLKNLLENSDSFASIPEFSSLLDQFFQYYQDQDVTFIGFEKLLHLFLHEDVPGLDIFYNKLLQCWVLVSPQAELLTKEIVKDIIWSLARLEKPSLFEPIQNEISRSLSGPYQDIISSWDMDDINEEDESNEFNFDSQFSAPFNGRPPFNLNSQSQIPTIKSSQSSGLARRKRILKTQSQKATPLSQSTQNLSVLPDSMTPAFTLMQPPSSQISFVNDSQPRNSQKAKKKKKRIRGFG"}, "B3": {"name": "TATA binding protein (TBP) (natural protein, S. cerevisiae, UniProt P13393 1-240, looked up)", "chain": "MADEERLKEFKEANKIVFDPNTRQVWENQNRDGTKPATTFQSEEDIKRAAPESEKDTSATSGIVPTLQNIVATVTLGCRLDLKTVALHARNAEYNPKRFAAVIMRIREPKTTALIFASGKMVVTGAKSEDDSKLASRKYARIIQKIGFAAKFTDFKIQNIVGSCDVKFPIRLEGLAFSHGTFSSYEPELFPGLIYRMVKPKIVLLIFVSGKIVLTGAKQREEIYQAFEAIYPVLSEFRKM"}, "B4": {"name": "Rrn11 (recombinant) (natural protein, S. cerevisiae, UniProt Q04712 1-507, looked up)", "chain": "MFEVPITLTNRKFAQRRKLKYQYINYISRRFDRISKKSTTTDSLPTPENSAAENNDEEEGQNSEAGTYRRSVLQQKKRRRERHWRSVVGEIYSTTESETDSQEEETEEGGEHDTGIDKEDSDEERKFWKKYEKPEKSFEIWRTVSSQNKQPINKQKMTYHNFKKIEKIPLRKMEIPLLHCTKENKLYFQSISRGLEPLKTSTSEVRNYRTRHIVTLTDLLHLNVSRHNWSLAYKIFATLIRIPGVQIKSLWGIGVEILDNLSNSSSGLDFLQWMCQIYSSKSRFVQNINYRSIVPPFQTGSRTHTAKFAITYLWSSLINCQKSMEPSSNIIDKPFDTENDLLQELIDKISEWVLTPPFMEDAEVWFIYASCHLLKADTLSRQFVNDNKNNDLIGLDRDIKINQVIKHIHYVRTFLKICLDKGGFAVPSRLIENQLKSFESRLYGEAQDIQERDVANVYDSIDNSSVENSFGDVYETNAEFLDTQLMDLSPEDNGLDEMHYSDEDSSE"}}, "key": {"[1]": {"target": "B2", "test": "co-purification"}, "[2]": {"target": "B1", "test": "cross-linking"}, "[3]": {"target": "B1", "test": "cross-linking", "remark": "listed apart in the source"}, "[4]": {"target": "B2", "test": "cross-linking"}, "Rrn11 (recombinant)": {"target": "B4", "test": "cross-linking"}, "[5]": {"target": "B2", "test": "cross-linking", "remark": "listed apart in the source"}}, "data": [{"binder": "B1", "values": [{"measurement": "binding result", "setting": "[1]", "result": "binds"}]}, {"binder": "B2", "values": [{"measurement": "stoichiometry N", "setting": "[2]", "result": 1}]}, {"binder": "B3", "values": [{"measurement": "binding result", "setting": "[3]", "result": "binds"}, {"measurement": "binding result", "setting": "[4]", "result": "binds"}, {"measurement": "binding result", "setting": "Rrn11 (recombinant)", "result": "binds"}]}, {"binder": "B4", "values": [{"measurement": "stoichiometry N", "setting": "[2]", "result": 1}, {"measurement": "stoichiometry N", "setting": "[5]", "result": 1}]}]}
